According to paper PMC7125023:

Molecular target: anti-RSV 2Fc mAb (dual Fc human IgG1, clone B21M variable regions) (human)
Assay: SPR

Substance	Kd	stoichiometry N
human neonatal Fc receptor (FcRn) (from UniProt P55899 24-297)	0.121 µM	4.17 FcR:mAb
human FcγRI (from UniProt P12314 16-292) (receptor)	0.00182 µM	2.12 FcR:mAb
